Measurements: paper PMC11396700, “Synthesis and Biological Activity of Homohypotaurine Obtained by the Enzyme-Based Conversion of Homocysteine Sulfinic Acid Using Recombinant Escherichia Coli Glutamate Decarboxylase” (Molecules, 2024)

How the values were obtained:
EcGadB = biological target: T1, EcGadB (Escherichia coli, UniProt P69910); assay: decarboxylation; GABA quantified by end-point GABase assay (NADPH at […] nm), Michaelis-Menten fit; format: biochemical; settings: pyridine/HCl 0.2 M (0.1 M in Figure 2 legend), pH 4.6, 37 °C, 1 mM PLP, 0.1 mM DTT; 0.15-10 mM substrate
T1 construct: gene gadB; recombinant, purified full-length enzyme, prepared by earlier published protocol; PLP enzyme
T1 sequence (P69910 1-466): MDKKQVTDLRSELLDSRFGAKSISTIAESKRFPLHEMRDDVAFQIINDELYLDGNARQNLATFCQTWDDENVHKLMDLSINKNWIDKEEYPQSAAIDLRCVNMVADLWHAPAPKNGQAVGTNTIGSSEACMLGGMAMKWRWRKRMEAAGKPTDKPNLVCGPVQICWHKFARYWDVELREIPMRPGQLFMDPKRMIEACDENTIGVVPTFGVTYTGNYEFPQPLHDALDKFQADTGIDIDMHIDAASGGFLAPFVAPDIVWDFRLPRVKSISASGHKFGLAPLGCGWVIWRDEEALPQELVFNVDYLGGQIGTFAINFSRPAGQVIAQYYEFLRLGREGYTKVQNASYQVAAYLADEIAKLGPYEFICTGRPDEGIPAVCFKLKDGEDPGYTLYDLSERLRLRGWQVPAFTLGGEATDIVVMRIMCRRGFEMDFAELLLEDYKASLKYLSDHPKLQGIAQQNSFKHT

purified protein = substrate: N[C@@H](CCS(=O)O)C(=O)O; assay: purified protein; format: biochemical, Escherichia coli; settings: pyridine/HCl 0.2 M (0.1 M in Figure 2 legend), pH 4.6, 37 °C, 1 mM PLP, 0.1 mM DTT, 3-300 mM substrate

Molecule	Km (EcGadB) [µM]	Km (purified protein) [µM]	kcat (purified protein) [s⁻¹]	kcat/Km (purified protein) [M⁻¹ s⁻¹]
N[C@@H](CCC(=O)O)C(=O)O [L-Glu, L-Glutamic acid]	840 ± 90			
EcGadB (Escherichia coli K-12) (protein, recombinant, purified full-length enzyme, prepared by earlier published protocol; PLP enzyme) MDKKQVTDLRSELLDSRFGAKSISTIAESKRFPLHEMRDDVAFQIINDELYLDGNARQNLATFCQTWDDENVHKLMDLSINKNWIDKEEYPQSAAIDLRCVNMVADLWHAPAPKNGQAVGTNTIGSSEACMLGGMAMKWRWRKRMEAAGKPTDKPNLVCGPVQICWHKFARYWDVELREIPMRPGQLFMDPKRMIEACDENTIGVVPTFGVTYTGNYEFPQPLHDALDKFQADTGIDIDMHIDAASGGFLAPFVAPDIVWDFRLPRVKSISASGHKFGLAPLGCGWVIWRDEEALPQELVFNVDYLGGQIGTFAINFSRPAGQVIAQYYEFLRLGREGYTKVQNASYQVAAYLADEIAKLGPYEFICTGRPDEGIPAVCFKLKDGEDPGYTLYDLSERLRLRGWQVPAFTLGGEATDIVVMRIMCRRGFEMDFAELLLEDYKASLKYLSDHPKLQGIAQQNSFKHT		38240 ± 3450	33.9 ± 1.07	890 ± 90
